{
  "source": "the supplement of paper PMC11780869",
  "test_system": "Bacillus subtilis",
  "assay": "cleaved RNA product abundance (RNA/gDNA barcode ratio) relative to median wild-type variant (ratio to wild type); higher = more accumulation of the downstream cleavage product",
  "how_it_was_run": "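The B. subtilis chromosome carried reporter mRNAs, truncated aprE or tetM, containing barcoded RNase Y cleavage-site windows mutagenized using oligos with a 9% error rate. After growth in LB at 37°C from OD600 0.0003 to 0.3, cleaved RNA was gel-selected, reverse transcribed and barcode-sequenced next to genomic DNA barcodes, with UMI collapsing. Each construct's RNA:gDNA barcode ratio was scaled to the median construct with the unmutated site. That scaled ratio is reported as cleaved product abundance.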",
  "key": {"[1]": {"details": "experiment (reporter, strain, medium): exp 4a: truncated aprE reporter, strain BJT201 with 2% xylose (RNase J1 expressed), cleavage site: cggR-gapA (positions -7 to +36 mutated)"}, "[2]": {"details": "experiment (reporter, strain, medium): exp 2b: truncated aprE reporter, strain BJT200, cleavage site: cggR-gapA (positions -7 to +36 mutated)"}, "[3]": {"details": "experiment (reporter, strain, medium): exp 8a: truncated aprE reporter, strain BJT201 with 2% xylose (RNase J1 expressed), cleavage site: glnRA (positions -5 to +31 mutated)"}},
  "data": [
    {"sequence": "ACAGACGAAGGAGCCGCAAAGAAGTTATTAACGGATGAATAATCCCTCAATATAGATATCTCTCACTTATTTAAA", "values": [
      {"measurement": "cleaved RNA product abundance", "setting": "[1]", "value": 0.158}
    ]},
    {"sequence": "ACAGACGAAGGAGCCGCACAGAAGTTAATAAGGGATGAATAATCCCTCAATATAAATATCTCTCACTTATTTAAA", "values": [
      {"measurement": "cleaved RNA product abundance", "setting": "[1]", "value": 0.309}
    ]},
    {"sequence": "ACAGACGAAGGAGCCGCAAAGAAGTTATTATGGGATGAATACTCCCTCAATATAAATATCTCTCACTTATTTAAA", "values": [
      {"measurement": "cleaved RNA product abundance", "setting": "[1]", "value": 0.212}
    ]},
    {"sequence": "ACAGACGAAGGAGCCGCAATGAAGTTATTAAGGGATGAATAATACCTCAATATAAATATCTCTCACTTATTTAAA", "values": [
      {"measurement": "cleaved RNA product abundance", "setting": "[1]", "value": 0.138}
    ]},
    {"sequence": "ACAGACGAAGGAGCCGCAAAGAAGTTCTTAAGGGATGAATAATCCTTCAATATAAATATCTCTCACTTATTTAAA", "values": [
      {"measurement": "cleaved RNA product abundance", "setting": "[2]", "value": 0.139}
    ]},
    {"sequence": "ACAGACGAAGGAGCCGCAAAGAAATTATTAAGGGATGAATAGTCCCTCAATATAAATATCTCTCACTTATTTAAA", "values": [
      {"measurement": "cleaved RNA product abundance", "setting": "[1]", "value": 0.937}
    ]},
    {"sequence": "ACAGACGAAGGAGCCGCAAATAAGTTATTAAGGGATGAATAATCCCTCAATATAAATTTCTCTCACTTATTTAAA", "values": [
      {"measurement": "cleaved RNA product abundance", "setting": "[1]", "value": 0.862}
    ]},
    {"sequence": "ACAGACGAAGGAGCCGCAAAGAAGTTATTAAGGGATGAATAATCCCGCAATATAGATATCTCTCACTTATTTAAA", "values": [
      {"measurement": "cleaved RNA product abundance", "setting": "[1]", "value": 0.279}
    ]},
    {"sequence": "ACAGACGAAGGAGCCGCAAAGTAGTTATTAAGGGATGAATAACCCCTCAATATAAATATCTCTCACTTATTTAAA", "values": [
      {"measurement": "cleaved RNA product abundance", "setting": "[1]", "value": 0.762}
    ]},
    {"sequence": "CGACATGTCCCGCTTCTTTCATTAATCTGTTAGCAACTGTTTTGCTATATACATTCACCTTTTAAGAGGAGGAAT", "values": [
      {"measurement": "cleaved RNA product abundance", "setting": "[3]", "value": 0.488}
    ]},
    {"sequence": "ACAGACGAAGGAGCCGCAAAGAAGTTATTAAGCGATGAATAATCCCTCAATATAAACATCTCTCACTTATTTAAA", "values": [
      {"measurement": "cleaved RNA product abundance", "setting": "[2]", "value": 0.0873},
      {"measurement": "cleaved RNA product abundance", "setting": "[1]", "value": 0.0627}
    ]},
    {"sequence": "ACAGACGAAGGAGCCGCAAAGAAGTTATTAAGGGATGAATAATCCCTCAAAATAAATAACTCTCACTTATTTAAA", "values": [
      {"measurement": "cleaved RNA product abundance", "setting": "[1]", "value": 0.363}
    ]},
    {"sequence": "ACAGACGAAGGAGCCGCAAAGAAGTTATTAAGGGATGAATAATCACTCAGTATAAATATCTCTCACTTATTTAAA", "values": [
      {"measurement": "cleaved RNA product abundance", "setting": "[1]", "value": 0.0778}
    ]},
    {"sequence": "ACAGACGAAGGAGCCGCAAAGAAGTTATTAAGGAATGAATATTCCCTCAATATAAATATCTCTCACTTATTTAAA", "values": [
      {"measurement": "cleaved RNA product abundance", "setting": "[2]", "value": 0.178},
      {"measurement": "cleaved RNA product abundance", "setting": "[1]", "value": 0.279}
    ]},
    {"sequence": "ACAGACGAAGGAGCCGCAAAGAAGTTATTAAGGGATGAATAATCTGTCAATATAAATATCTCTCACTTATTTAAA", "values": [
      {"measurement": "cleaved RNA product abundance", "setting": "[2]", "value": 0.0956},
      {"measurement": "cleaved RNA product abundance", "setting": "[1]", "value": 0.123}
    ]},
    {"sequence": "ACAGACGAAGGAGCCGCAAAGAAGGTATTAAGGCATGAATAATCCCTCAATATAAATATCTCTCACTTATTTAAA", "values": [
      {"measurement": "cleaved RNA product abundance", "setting": "[1]", "value": 0.101}
    ]},
    {"sequence": "CGACATGTCCCGCTTCTTTCATTAATCCCTTAGCAACTGTTTTACTATATACATTTACCTTTTAAGAGGAGGAAT", "values": [
      {"measurement": "cleaved RNA product abundance", "setting": "[3]", "value": 0.0875}
    ]},
    {"sequence": "CGACATGTCCCGCTTCTTTCATTAATCGGTTAGCAACTGTTTTGCTATCTACATTTACCTTTTAAGAGGAGGAAT", "values": [
      {"measurement": "cleaved RNA product abundance", "setting": "[3]", "value": 0.132}
    ]},
    {"sequence": "CGACATGTCCCGCTTCTTTCATTAACCCGTTAGCAACTGTTTTGCTATATACCTATACCTTTTAAGAGGAGGAAT", "values": [
      {"measurement": "cleaved RNA product abundance", "setting": "[3]", "value": 0.789}
    ]},
    {"sequence": "ACAGACGAAGGAGCCGCAAAGAAGTTATTAATGGATGAATAATCCCCCAATATAAATATCTCTCACTTATTTAAA", "values": [
      {"measurement": "cleaved RNA product abundance", "setting": "[2]", "value": 0.0983},
      {"measurement": "cleaved RNA product abundance", "setting": "[1]", "value": 0.122}
    ]},
    {"sequence": "ACAGACGAAGGAGCCGCAAAGAATGTATTAAGGGATGAATAATCCCTCAATATAAATATCTCTCACTTATTTAAA", "values": [
      {"measurement": "cleaved RNA product abundance", "setting": "[1]", "value": 0.695}
    ]},
    {"sequence": "ACAGACGAAGGAGCCGCAAAGAAGTTATTAAGGGATTAATAATCCCTCTATATAAATATCTCTCACTTATTTAAA", "values": [
      {"measurement": "cleaved RNA product abundance", "setting": "[1]", "value": 0.547}
    ]},
    {"sequence": "ACAGACGAAGGAGCCGCAAAGAAGTTATTAAGGGAGGAATAATCCCTAAATATAAATATCTCTCACTTATTTAAA", "values": [
      {"measurement": "cleaved RNA product abundance", "setting": "[2]", "value": 0.404},
      {"measurement": "cleaved RNA product abundance", "setting": "[1]", "value": 0.324}
    ]}
  ]
}
